These results are taken from patent US20130289253A1.

In experiment [1] the target is HA peptide-stimulated PBMC (antigen-specific CD4+ T cells).
Experiment [2] deals with control (Fig. 48).
In experiment [3] the target is HA peptide-stimulated PBMC (antigen-specific CD4+ T cells). The source holds these as a separate data set.
Experiment [4] has the same target. This is another data set of the same source.
Experiment [5] concerns the target control (Fig. 48). As to the kind of experiment: flow cytometry, 4 °C; control. Background: In flow cytometry, cells or beads pass a laser one at a time.
Experiment [6] has as its target control (Fig. 48). As to the kind of experiment: flow cytometry, RT, 7 µg/ml; control.
Experiment [7] concerns the target HA peptide-stimulated PBMC (antigen-specific CD4+ T cells). Briefly: flow cytometry, 4 °C; HA306-318 stim.
In experiment [8] the target is control (Fig. 48). Briefly: flow cytometry, RT, 3.5 µg/ml; control.
Experiment [9] addresses control (Fig. 48). As to the kind of experiment: flow cytometry, RT, 1.75 µg/ml; control.
Experiment [10] concerns the target HA peptide-stimulated PBMC (antigen-specific CD4+ T cells). As to the kind of experiment: flow cytometry, RT, 7 µg/ml; HA306-318 stim.
Experiment [11] has the same target. As to the kind of experiment: flow cytometry, RT, 3.5 µg/ml; HA306-318 stim.
The target is the same in experiment [12]. As to the kind of experiment: flow cytometry, RT, 1.75 µg/ml; HA306-318 stim.
Experiment [13] shares this target. Briefly: flow cytometry, RT 1 h, 10 µg/ml; HA306-318 stim.
The target is the same in experiment [14]. Briefly: flow cytometry, 37 °C 1 h, 10 µg/ml; HA306-318 stim.
For experiment [15] the target is unchanged. As to the kind of experiment: flow cytometry, staining at 4°C 1 h, 28 µg/ml; 0 min, no imidazole.
Experiment [16] has the same target. As to the kind of experiment: flow cytometry, staining at 4°C 1 h, 28 µg/ml; 1 min, no imidazole.
Experiment [17] has the same target. As to the kind of experiment: flow cytometry, staining at 4°C 1 h, 28 µg/ml; 3 min, no imidazole.
Experiment [18] has the same target. Briefly: flow cytometry, staining at 4°C 1 h, 28 µg/ml; 5 min, no imidazole.
Experiment [19] has the same target. As to the kind of experiment: flow cytometry, staining at 4°C 1 h, 28 µg/ml; 10 min, no imidazole.
For experiment [20], the target named is control (Fig. 48). Briefly: flow cytometry, RT; control; conventional BSP multimer, concentration not given.

Values joined by “and” are separate entries in the source; they are usually repeats but may differ in a detail not shown here. Identical values can stand only once. Like-named read-outs stand apart in the source and are kept apart here.

“DR4 2×His DTB-HA306-318 complexes (DTB-streptactin purified monomers) (from UniProt P01903 26-216) (peptide-MHC)”: the % of cells in Q2 (multimer+ CD4+) in [1] was 24.9% and 9.81%; with control (Fig. 48) [2], 0.384% and 0.618%; in [3], 12.3%; in experiment [4], 4.52%; in the experiment with control (Fig. 48) [5], 0.355% and 0.561%; with control (Fig. 48) [6], 0.11%. Besides, the % of cells in Q2 (multimer+ CD4+) in experiment [7] was 2.52% and 2.3%; with control (Fig. 48) [8] it was 0.222%; with control (Fig. 48) [9], 0.142%; in experiment [10] it was 6.15%; in experiment [11], 7.94%; in [12] it was 7.23%. Moreover, the % of cells in Q2 (multimer+ CD4+) in [13] was 5.35% and 3.3%; in experiment [14], 6.23%; in experiment [15], 4.5%; in experiment [16], 5.3%; in experiment [17], 4.68%; in [18], 4.59%. For the same substance, the values for the % of cells in Q2 (multimer+ CD4+) (in experiment [19]; in the experiment with control (Fig. 48) [20]) were 4.35% and 0.121%, respectively.
